Test results from patent publication US5962634A, “IgE antagonists” (Thomas Jefferson University, priority 1997, dated 1999).
Bridges are numbered along the chain shown (N, C = ends). Where no end group is shown, it is not given here. [ ]: non-standard residue; d: D form.

Columns and labels:
[1] = target: FcεR1α (Homo sapiens); assay: Surface plasmon resonance (BIAcore biosensor) inhibition of IgE-Fc binding to immobilized soluble FcεR1α; details: peptide 2.5 mM; IgE-Fc 5 nM, association monitored for 6 minutes, 24° C.
Sequence of FcεR1α (Homo sapiens) (P01854 104-428 isoform P01854-1 limits assumed): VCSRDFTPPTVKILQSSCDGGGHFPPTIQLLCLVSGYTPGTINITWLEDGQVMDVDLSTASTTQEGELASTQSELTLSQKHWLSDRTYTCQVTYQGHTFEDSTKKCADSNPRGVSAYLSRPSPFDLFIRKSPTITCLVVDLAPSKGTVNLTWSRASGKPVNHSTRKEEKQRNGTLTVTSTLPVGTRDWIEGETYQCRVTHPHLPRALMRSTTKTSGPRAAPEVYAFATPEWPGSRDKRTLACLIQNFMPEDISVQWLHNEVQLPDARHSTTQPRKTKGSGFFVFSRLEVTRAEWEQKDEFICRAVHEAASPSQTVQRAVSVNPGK
Method: The kinetics of binding of IgE Fc to soluble FcεR1α were determined using a BIAcore biosensor (Pharmacia Biosensor AB, Uppsala, Sweden). The FcεR1α was immobilized via primary amine groups to a carboxymethylated dextran-coated CM5 sensor chip, at a concentration of 85 μg/ml in 10mM sodium acetate buffer pH 4.5, using N-hydroxy-succinimide and N-ethyl-N'-(3-[…])-carbodiimide.Free sites were blocked with 1M ethanolamine-hydrochloride pH 8.5.
The association of IgE-Fc at a concentration of 5nM was monitored for 6 minutes in the presence and absence of a derivative of the D amino acid peptide #1 at various concentrations (at 24° C.) The derivative of D amino acid peptide #1 is identical to D amino acid #1, which is described in Example 3, except it is biotinylated.

[2] = target: labelled myeloma IgE; assay: competition: peptide titrated against 5 nM iodinated myeloma IgE binding to transfected CHO cells, gamma counting

In the case of “derivative of D amino acid peptide #1: identical to D amino acid peptide #1, which is described in Example 3, except it is biotinylated (CIYYKDGEALKY[dC]; disulfide 1-13; also: biotinylated (site not given here))”, the “inhibition of IgE-Fc binding” value [1] is reported as “virtually complete inhibition”.

Molecule CIYYKDGEALKY[dC] (disulfide 1-13) [D amino acid peptide #1] has an IC50 [2] of 5.14 µM.
